Measurements from US20110300138A1 (published 2011).

What was measured:
Test in all cases: cell-based or functional assay
[1] = biological target: TSHR with Lys183 mutated to Ala expressed in CHO cells (human) (UniProt P16473)
[2] = biological target: TSHR with Thr104 mutated to Ala (expressed in CHO cells) (human) (UniProt P16473)
[3] = biological target: wild type TSHR (human TSH receptor, full length) expressed in CHO cells (human) (UniProt P16473)

## TSH (ligand)
[1]
  Mutated/Wild type (%) of cyclic AMP produced, 3 ng/mL TSH, Experiment 1: 80%
  Mutated/Wild type (%) of cyclic AMP produced, 3 ng/mL TSH, Experiment 2: 103%
[2]
  % inhibition of TSH stimulation; TSH (2), run at the end of assay: 10%
  Cyclic AMP produced (pmol/mL), TSH 0.01 ng/mL, Experiment 1: 2.58 pmol/mL
  Cyclic AMP produced (pmol/mL), TSH 0.01 ng/mL, Experiment 2: 4.28 pmol/mL
  Cyclic AMP produced (pmol/mL), TSH 0.03 ng/mL, Experiment 1: 3.2 pmol/mL
  Cyclic AMP produced (pmol/mL), TSH 0.03 ng/mL, Experiment 2: 5.71 pmol/mL
  Cyclic AMP produced (pmol/mL), TSH 0.1 ng/mL, Experiment 1: 3.64 pmol/mL
  Cyclic AMP produced (pmol/mL), TSH 0.1 ng/mL, Experiment 2: 9.8 pmol/mL
  Cyclic AMP produced (pmol/mL), TSH 0.3 ng/mL, Experiment 1: 5.38 pmol/mL
  Cyclic AMP produced (pmol/mL), TSH 0.3 ng/mL, Experiment 2: 35.7 pmol/mL
  Cyclic AMP produced (pmol/mL), TSH 1 ng/mL, Experiment 1: 15.8 pmol/mL
  Cyclic AMP produced (pmol/mL), TSH 1 ng/mL, Experiment 2: 57.1 pmol/mL
  Cyclic AMP produced (pmol/mL), TSH 3 ng/mL, Experiment 1: 34.5 pmol/mL
  Cyclic AMP produced (pmol/mL), TSH 3 ng/mL, Experiment 2: 58.5 pmol/mL
  Cyclic AMP produced; TSH 3 ng/mL alone: 63.7 pmol/mL
  Cyclic AMP produced; TSH (2) 3 ng/mL, run at the end of assay: 57 pmol/mL
  Mutated/Wild type (%), TSH 0.01 ng/mL, Experiment 1: 188%
  Mutated/Wild type (%), TSH 0.01 ng/mL, Experiment 2: 204%
  Mutated/Wild type (%), TSH 0.03 ng/mL, Experiment 1: 203%
  Mutated/Wild type (%), TSH 0.03 ng/mL, Experiment 2: 127%
  Mutated/Wild type (%), TSH 0.1 ng/mL, Experiment 1: 199%
  Mutated/Wild type (%), TSH 0.1 ng/mL, Experiment 2: 95%
  Mutated/Wild type (%), TSH 0.3 ng/mL, Experiment 1: 168%
  Mutated/Wild type (%), TSH 0.3 ng/mL, Experiment 2: 100%
  Mutated/Wild type (%), TSH 1 ng/mL, Experiment 1: 99%
  Mutated/Wild type (%), TSH 1 ng/mL, Experiment 2: 79%
  Mutated/Wild type (%), TSH 3 ng/mL, Experiment 1: 72%
  Mutated/Wild type (%), TSH 3 ng/mL, Experiment 2: 74%
  Mutated/wild type (%) of cyclic AMP produced; TSH 3 ng/mL alone: 76%
  Mutated/wild type (%) of cyclic AMP produced; TSH (2) 3 ng/mL, run at the end of assay: 68%
[3]
  % inhibition of TSH stimulation; TSH (2) control: 0%
  % inhibition of TSH stimulation; TSH (2) control; Experiment 1: 0.1%
  % inhibition of TSH stimulation; TSH (2) control; Experiment 2: 0%
  Cyclic AMP produced (pmol/mL), TSH 0.01 ng/mL, Experiment 1: 4.36 pmol/mL
  Cyclic AMP produced (pmol/mL), TSH 0.01 ng/mL, Experiment 2: 2.21 pmol/mL
  Cyclic AMP produced (pmol/mL), TSH 0.01 ng/mL, Experiment 3: 5.19 pmol/mL
  Cyclic AMP produced (pmol/mL), TSH 0.03 ng/mL, Experiment 1: 9.19 pmol/mL
  Cyclic AMP produced (pmol/mL), TSH 0.03 ng/mL, Experiment 2: 3.61 pmol/mL
  Cyclic AMP produced (pmol/mL), TSH 0.03 ng/mL, Experiment 3: 9.82 pmol/mL
  Cyclic AMP produced (pmol/mL), TSH 0.1 ng/mL, Experiment 1: 26.9 pmol/mL
  Cyclic AMP produced (pmol/mL), TSH 0.1 ng/mL, Experiment 2: 7.86 pmol/mL
  Cyclic AMP produced (pmol/mL), TSH 0.1 ng/mL, Experiment 3 (duplicate determination): 25 pmol/mL
  Cyclic AMP produced (pmol/mL), TSH 0.3 ng/mL, Experiment 1: 42 pmol/mL
  Cyclic AMP produced (pmol/mL), TSH 0.3 ng/mL, Experiment 2: 27.1 pmol/mL
  Cyclic AMP produced (pmol/mL), TSH 0.3 ng/mL, Experiment 3: 91.7 pmol/mL
  Cyclic AMP produced (pmol/mL), TSH 1 ng/mL, Experiment 1: 60.1 pmol/mL
